# According to patent US11672846B2, “Soluble bacterial and fungal proteins and methods and uses thereof in inhibiting and dispersing biofilm” (priority 2014, dated 2023):
# Entries after “also recorded” stand apart in the source; their conditions may differ.
# B1: BpsB318-670: BpsB C-terminal hydrolase domain residues 318-670, SEQ ID NO: 19 (protein, listed as Bordetella bronchiseptica)
# chain: PIERIVQVDLDYIYDPDPEQQNRNLGQLIDRMKDLAPSAVYLQAFADPKGDGDITEVYFPNRHLPMRADLFNRVAWQLKTRAGVMVYAWLPVLTFSVPPGNPAYGKVVQSTTRKPGERGLGSPTRLSPFHPDAHRVISEIYEDLAKAAHFDGLLFHDDAVLDDTEDSSPEALATYQGWGLPPDIAAIRADPKLAQQWSKGKIRYLIDFTMHLRHIVSGYQNDRDMVVARNLYAQPVLDPVSEAWYGQSLPEFLKSYDFVALMAMPNMEGAARPEQWMRQLVAAVARQKGLDRTIFELQARDWRVGKPIDTEILRRQMVQLRSLGAINYGYYPDDFIANHPDAEALRDVMSLKS
# B2: Ega346-318: soluble Ega3 residues 46-318, Aspergillus fumigatus Af293, SEQ ID NO: 21 (protein, listed as Aspergillus fumigatus)
# chain: GLGGGGGGEGEEGSGGETTPPEGNYTTAKWQPAVGTKWQIELLYALNDTSVDAEIYDIDLFINDKSTIAGLQRAGRKVICYFSAGSYENWRPDKDKFKDSDLGHDLDDWPGEKWLNISSANVRQIMLDRLDMARDKGCDGVDPDNVDGYDNDNGLDLTQADSISFVNFLANAAHARNMSIGLKNAGDIIPSVIKNMQWSVNEQCAQYNECDTYAVFPQNGKPVFHIEYPKGDKTNNDLSVTASQKNAACDFAGSANFSTVIKNMNLNNWVEYC
# B3: Sph3AC(54-304): Sph3 ortholog residues 54-304, Aspergillus clavatus NRRL 1, SEQ ID NO: 22 (protein, listed as Aspergillus clavatus)
# chain: MGPKSKVFVPLYVYPAPGAWDPLEDVISKHPDVNFTVVINPGSGPGPEALPDGNYTREIPKLASYENVRLLGYVATTYAKRNISEVRRDIETYAAWPTQSSNANLAVRGIFFDETPQQYDADILAYLRELTDVVKGTSGLGPDHYVVHNPGAIPDSRYLSTADSTVVFEATYATFQERHGAELFDTIPDSHRDQLCAVIHSVPTSVEGSDLRGLVKQVRQVADEIFITHLETDYYAGFGGQWSEFVDLMAS
# Key:
# [1] = Reducing sugar assay on dPNAG; assay type: biochemical, S. aureus
# Method: Isolated dPNAG from S. aureus strain MN8m was solubilized in 6 N HCl at ˜10 mg/mL. 10 N NaOH was used to titrate the re-suspension until neutrality was reached, ˜pH 7-8. In a 50 μL reaction, 1 μM BpsB318-670 was incubated with 1-5 mg/mL of dPNAG in 100 mM HEPES pH 7.0 for 18 hours. The sample was split into two 20 μL aliquots and treated with DTT/3-Methyl-2-benzothiazolinone hydrazone hydrochloride hydrate and heated at 80° C. for 15 minutes. A solution of 0.5% (w/w) iron (III) ammonium sulfate dodecahydrate, 0.5% (w/w) sulfamic acid, and 0.25 N hydrochloric acid was added, mixed, and cooled to room temperature. […] Protein and dPNAG in buffer H were used as background controls.
# [2] = tested on: PNAG-overproducing E. coli biofilms; assay: Dispersal of pre-formed PNAG-dependent E. coli biofilms; settings: read-out: EC50 of degradation of pre-formed E. coli biofilm; 60 min, average starting OD595 of 0.5
# Method: Bacterial cultures expressing Psl were inoculated as stated above and were grown at 37° C. overnight with shaking at 200 rpm. All cultures were diluted in 1:100 in LB and arabinose was added to a final concentration of 0.5% (w/v) to induce Psl biosynthesis. Media containing the Psl-producing cultures were supplemented with 200 μg/mL ampicillin and 100 μg/mL kanamycin. The cultures were incubated statically for 24 h at 26° C. to allow for biofilm formation. After incubation non-adherent cells and media were removed by washing the plate with deionized water three times. The wells were filled with 95 μL of 100 mM sodium HEPES buffer pH 7.0 followed by 5 μL of varying concentrations of each hydrolytic enzyme (2 nM-5 μM). Reactions were allowed to proceed for up to 60 min at 25° C. on a rotating nutator at which time, the reaction was quenched by washing the plates with deionized water. The wells were stained with 200 μL of 0.1% (w/v) crystal violet for 10 min, and washed with water three times. Crystal violet dye from Psi cultures was solubilized in 100 μL of 95% ethanol for 10 min with rotation, after which time the absorbance was measured at 595 nm using a SpectraMax M2 from Molecular Devices (Sunnyvale, Calif.). The amount of biofilm is proportional to the absorbance from staining with crystal violet (Merritt et al 2005). All reactions were completed in at least triplicate and 100 mM sodium HEPES buffer pH 7.0 was used as an untreated control. The addition of 2.5 mg/mL kanamycin to culture prior to biofilm formation was used as a positive control as no cell growth occurs.
# PNAG-overproducing E. coli was grown at 37° C. overnight in LB broth supplement with 200 ug/mL ampicillin and 100 ug/mL kanamycin with shaking at 200 rpm. An E. coli μgaABCD knockout strain was used as a non-biofilm forming control for background straining.
# [3] = tested on: S. carnosus; assay: Inhibition of PNAG-dependent S. carnosus biofilm formation; settings: 5 μM, preliminary testing
# Method: In brief, PNAG-overproducing E. coli or S. carnosus was grown at 37° C. overnight in LB broth supplement with 200 μg/mL ampicillin and 100 μg/mL kanamycin, and 10 μg/mL tetracycline, respectively, with shaking at 200 rpm. Fresh cultures with antibiotic were prepared from the overnight culture using a 1:100 dilution, using LB broth for E. coli, and tryptic soy broth for S. carnosus. 95 μL of diluted culture was added to a sterile 96-well polystyrene round bottom microtiter plate and varying concentrations of protein (2 nM-5 μM) were added in 5 μL aliquots to give a final volume of 100 μL. The cultures were incubated statically for 24 h at 26° C. for E. coli, and 37° C. for S. carnosus, to allow for biofilm formation. To eliminate edge-effects, ˜200 μL of sterile water was placed in all outside wells and the plate was sealed with parafilm. After incubation non-adherent cells and media were removed by washing the plate with deionized water three times. The wells were stained with 150 μL of 0.1% (w/v) crystal violet for 10 min, and washed with water three times. The remaining dye was solubilized with 100 μL of 33% (v/v) acetic acid for 10 min with rotation, after which time the absorbance was measured at 595 nm using a SpectraMax M2 from Molecular Devices (Sunnyvale, Calif.). […] All reactions were completed in at least triplicates and buffer G was used as an untreated control. […]
# [4] = tested on: PNAG-overproducing E. coli; assay: Inhibition of PNAG-dependent E. coli biofilm formation (crystal violet); settings: read-out: EC50 of E. coli biofilm formation prevention, static 24 h at 26° C.
# Method: In brief, PNAG-overproducing E. coli or S. carnosus was grown at 37° C. overnight in LB broth supplement with 200 μg/mL ampicillin and 100 μg/mL kanamycin, and 10 μg/mL tetracycline, respectively, with shaking at 200 rpm. Fresh cultures with antibiotic were prepared from the overnight culture using a 1:100 dilution, using LB broth for E. coli, and tryptic soy broth for S. carnosus. 95 μL of diluted culture was added to a sterile 96-well polystyrene round bottom microtiter plate and varying concentrations of protein (2 nM-5 μM) were added in 5 μL aliquots to give a final volume of 100 μL. The cultures were incubated statically for 24 h at 26° C. for E. coli, and 37° C. for S. carnosus, to allow for biofilm formation. To eliminate edge-effects, ˜200 μL of sterile water was placed in all outside wells and the plate was sealed with parafilm. After incubation non-adherent cells and media were removed by washing the plate with deionized water three times. The wells were stained with 150 μL of 0.1% (w/v) crystal violet for 10 min, and washed with water three times. The remaining dye was solubilized with 100 μL of 33% (v/v) acetic acid for 10 min with rotation, after which time the absorbance was measured at 595 nm using a SpectraMax M2 from Molecular Devices (Sunnyvale, Calif.). […] All reactions were completed in at least triplicates and buffer G was used as an untreated control. Either an E. coli pgaABCD knockout strain (DPGA) or S. carnosus treated with gentamycin, was used as a control for background straining.
# [5] = tested on: A. fumigatus; assay: Ega3 inhibition of A. fumigatus biofilm formation (crystal violet, imaged); assay type: cell-based; settings: 1 μM, 18 h
# Method: A. fumigatus conidia were inoculated into polystyrene, round-bottom 24-well plates at a concentration of 10^5 conidia/well in DMEM media. To assess the inhibition of biofilm formation, Ega346-318 was added at a final concentration of 1 μM and the conidia incubated for 18 h at 37° C., 5% CO2. The resulting biofilms were then gently washed twice with distilled water, and stained with 0.1% crystal violet for 10 min. Samples were washed twice with water and the wells were imaged.
# [6] = tested on: preformed A. fumigatus biofilm; assay: Ega3 disruption of preformed A. fumigatus biofilm; assay type: cell-based; settings: 1 μM, 1.5 h, room temperature
# Method: To determine the effect hydrolase has on a preformed biofilm, 10^5 A. fumigatus conidia were inoculated per well in DMEM media as above, but in the absence of hydrolase. Following 18 h incubation at 37° C., 5% CO2, the resulting biofilm was treated with Ega346-318 at a final concentration of 1 μM for 1.5 h at room temperature on a nutator. The biofilms were then washed and stained as mentioned above.
# [7] = tested on: A. fumigatus hyphae; assay: SBA-FITC lectin staining of A. fumigatus hyphae after Ega3 treatment; assay type: cell-based; settings: 0.5 μM, 3 h
# [8] = tested on: A. fumigatus GAG biofilm; assay: Inhibition of GAG-dependent A. fumigatus biofilm formation (crystal violet); assay type: cell-based
# [9] = tested on: pre-formed A. fumigatus GAG biofilms; assay type: cell-based; settings: crystal violet
# [10] = tested on: Trichosporon asahii; assay: SBA-FITC lectin staining of Trichosporon asahii after hydrolase treatment; assay type: cell-based; settings: 0.5 μM, 3 h
# Method: To assess the effects of hydrolase treatment on Trichosporon asahii, 1×10^5 T. asahii yeast cells or A. fumigatus conidia were inoculated in Dulbecco's Modified Eagle Medium (DMEM), and grown for 10 h at 37° C., 5% CO2 on glass coverslips. Wells were gently washed once with Ham's F-12K (Kaighn's) Medium (F12K) media, and Sph3AC(54-304) was added at a final concentration of 0.5 μM in F12K, and incubated for an additional 3 h at 37° C., 5% CO2. Young hyphae were washed twice with PBS, and stained with FITC tagged SBA for 1 h. The stained samples were washed with PBS and fixed with 4% PFA for 15 min. Slides were then mounted, sealed, and imaged under confocal microscopy with a 488 nm laser (Zeiss).
# [11] = tested on: RFP-expressing Af293 hyphae; assay: Uptake of Bodipy-conjugated posaconazole by hyphae (confocal microscopy); assay type: cell-based, A. fumigatus; settings: 0.5 μM pretreatment 90 min
# Method: Red Fluorescent Protein (RFP)-expressing Af293 hyphae were pretreated with 0.5 μM Sph3AC(54-304) hydrolase for 90 min before treatment with Bodipy-conjugated posaconazole (BDP-PCZ). At various time points, samples were fixed and imaged using fluorescent confocal microscopy to determine the kinetics of drug penetration of hyphae.
# [12] = tested on: Botrytis cinerea isolate 7b1; assay: Lectin staining of Botrytis cinerea hyphae after hydrolase treatment; assay type: cell-based; settings: 1 μM
# Method: Botrytis cinerea isolate 7b1 was inoculated at a concentration of 6×10^3 conidia/ml in 500 μl of Brian media on poly-D-lysine-coated coverslips (Corning, Bedford, Mass.) for 17 h at room temperature, in the dark. Samples were incubated either in the presence or absence of 1 μM Sph3AC(54-304). Media was then removed and the hyphae were incubated in PBS with or without 1 μM Sph3AC(54-304) for 1 h at room temperature. Samples were washed twice with PBS, and stained with 30 μg/mL of Wisteria fluoribunda (WFL) lectin conjugated to fluoresceine for 2 h at 4° C. Samples were washed twice with PBS, and fixed with 4% paraformaldehyde for 10 min at 4° C. Samples were washed once and stained with a 1:1000 dilution of DRAQ5™ (eBioscience, San Diego, Calif.) for 5 min at room temperature. Samples were washed once with PBS, mounted onto microscope slides using SlowFade® Gold antifade reagent (life Technologies™, Eugene, Oreg.), and sealed with nail polish. Images were acquired on an Olympus Fluoview confocal laser microscope using 488 and 633 nm lasers coupled with BA505-525 and BA650IF filters, respectively. Z-stacks of 0.2 μm increments were acquired, and 3D-rendered using ImageJ software (National Institutes of Health).
# [13] = tested on: A549 pulmonary epithelial cell line injured by A. fumigatus; assay: Chromium release epithelial cell damage assay; settings: recombinant Sph3 hydrolases, up to 24 h
# Method: The immortalized airway epithelial cell line A549 was loaded with chromium-51 by incubating monolayers grown in 24-well tissue culture plates with 3 mCi of ^51Cr at 37° C. in 5% CO2 for 24 h. Excess chromium was removed by washing with Hank's Balanced Salt Solution (HBSS). […] For testing germ tubes, conidia were grown for 7 h in SAB media at 37° C., then the fungus was collected and resuspended in DF12K media before 0.5 μM of hydrolase was added. The germ tubes were incubated with hydrolase for 1 h before being added to the A549 cells. After 16, 20 and 24 h of co-incubation, an aliquot of the medium above the cells was retrieved and replaced with fresh media. The cells were then lysed with 6 N NaOH and the lysate collected. The ^51Cr content of the medium and lysates was then measured in a gamma counter and the extent of epithelial cell damage was calculated as a function of the degree of ^51Cr release. Each strain was tested in triplicate, and all results were corrected for spontaneous chromium release by uninfected epithelial cells.
# The methodology for prevention of epithelial cell damage caused by A. fumigatus using Sph352-298 is identical to that previously described in Example 19 for the use PelA47-303.
molecule,measurement,setting,value
B1,dPNAG hydrolysis (in words),[1],hydrolyze dPNAG
same,EC50,[2],~90 nM
same,inhibition of S. carnosus biofilm formation (in words),[3],can inhibit biofilm formation
same,EC50,[4],~60 nM
B2,A. fumigatus biofilm formation / adherence in presence of enzyme,[5],prevented biofilm formation; also recorded: completely non-adherent
same,effect on preformed 18 h A. fumigatus biofilm,[6],allowed for disruption of the biofilm
same,detectable GalNAc on hyphal surface after treatment,[7],complete loss of detectable
B3,inhibition of A. fumigatus biofilm formation by recombinant Sph3 (in words),[8],inhibit the formation of A. fumigatus biofilms in a dose dependent manner
same,dispersal of pre-formed GAG biofilm (in words),[9],capable of disrupting GAG-dependent biofilms
same,surface GalNAc exopolysaccharide of T. asahii after treatment,[10],complete loss
same,uptake of fluorescent-tagged posaconazole by hyphae,[11],increases the activity of antifungals; also recorded: increased the speed and degree of uptake
same,GAG exopolysaccharide on B. cinerea hyphae after treatment,[12],complete loss of this exopolysaccharide
same,"epithelial cell damage by A. fumigatus, chromium release",[13],completely protected epithelial cells from damage by A. fumigatus for 24 h
same,"epithelial cell damage by A. fumigatus, chromium release",[13]; listed as Sph3 from A. clavatus,reduced fungal damage to epithelial cells
